According to paper PMC6289052:

Assays:
TCF4 DBD (mouse) = assay: PBM; settings: not given in the material (PBM protein binding as described previously)
USF1 DBD (mouse) = assay: PBM; settings: not given in the material (PBM protein binding as described previously)

| Substance | binding signal (TCF4 DBD (mouse)) | binding signal (USF1 DBD (mouse)) |
| --- | --- | --- |
| CAGGTGGT, cytosine | 52 Z-score | – |
| GTCACGTG, cytosine | – | 87 Z-score |
